B1: Cohesin subunit SA-2 (Homo sapiens), Q8N3U4 (parent)
chain: MIAAPEIPTDFNLLQESETHFSSDTDFEDIEGKNQKQGKGKTCKKGKKGPAEKGKGGNGGGKPPSGPNRMNGHHQQNGVENMMLFEVVKMGKSAMQSVVDDWIESYKHDRDIALLDLINFFIQCSGCKGVVTAEMFRHMQNSEIIRKMTEEFDEDSGDYPLTMAGPQWKKFKSSFCEFIGVLVRQCQYSIIYDEYMMDTVISLLTGLSDSQVRAFRHTSTLAAMKLMTALVNVALNLSINMDNTQRQYEAERNKMIGKRANERLELLLQKRKELQENQDEIENMMNAIFKGVFVHRYRDAIAEIRAICIEEIGIWMKMYSDAFLNDSYLKYVGWTMHDKQGEVRLKCLTALQGLYYNKELNSKLELFTSRFKDRIVSMTLDKEYDVAVQAIKLLTLVLQSSEEVLTAEDCENVYHLVYSAHRPVAVAAGEFLYKKLFSRRDPEEDGMMKRRGRQGPNANLVKTLVFFFLESELHEHAAYLVDSMWDCATELLKDWECMNSLLLEEPLSGEEALTDRQESALIEIMLCTIRQAAECHPPVGRGTGKRVLTAKEKKTQLDDRTKITELFAVALPQLLAKYSVDAEKVTNLLQLPQYFDLEIYTTGRLEKHLDALLRQIRNIVEKHTDTDVLEACSKTYHALCNEEFTIFNRVDISRSQLIDELADKFNRLLEDFLQEGEEPDEDDAYQVLSTLKRITAFHNAHDLSKWDLFACNYKLLKTGIENGDMPEQIVIHALQCTHYVILWQLAKITESSSTKEDLLRLKKQMRVFCQICQHYLTNVNTTVKEQAFTILCDILMIFSHQIMSGGRDMLEPLVYTPDSSLQSELLSFILDHVFIEQDDDNNSADGQQEDEASKIEALHKRRNLLAAFCKLIVYTVVEMNTAADIFKQYMKYYNDYGDIIKETMSKTRQIDKIQCAKTLILSLQQLFNEMIQENGYNFDRSSSTFSGIKELARRFALTFGLDQLKTREAIAMLHKDGIEFAFKEPNPQGESHPPLNLAFLDILSEFSSKLLRQDKRTVYVYLEKFMTFQMSLRREDVWLPLMSYRNSLLAGGDDDTMSVISGISSRGSTVRSKKSKPSTGKRKVVEGMQLSLTEESSSSDSMWLSREQTLHTPVMMQTPQLTSTIMREPKRLRPEDSFMSVYPMQTEHHQTPLDYNRRGTSLMEDDEEPIVEDVMMSSEGRIEDLNEGMDFDTMDIDLPPSKNRRERTELKPDFFDPASIMDESVLGVSMF
partner: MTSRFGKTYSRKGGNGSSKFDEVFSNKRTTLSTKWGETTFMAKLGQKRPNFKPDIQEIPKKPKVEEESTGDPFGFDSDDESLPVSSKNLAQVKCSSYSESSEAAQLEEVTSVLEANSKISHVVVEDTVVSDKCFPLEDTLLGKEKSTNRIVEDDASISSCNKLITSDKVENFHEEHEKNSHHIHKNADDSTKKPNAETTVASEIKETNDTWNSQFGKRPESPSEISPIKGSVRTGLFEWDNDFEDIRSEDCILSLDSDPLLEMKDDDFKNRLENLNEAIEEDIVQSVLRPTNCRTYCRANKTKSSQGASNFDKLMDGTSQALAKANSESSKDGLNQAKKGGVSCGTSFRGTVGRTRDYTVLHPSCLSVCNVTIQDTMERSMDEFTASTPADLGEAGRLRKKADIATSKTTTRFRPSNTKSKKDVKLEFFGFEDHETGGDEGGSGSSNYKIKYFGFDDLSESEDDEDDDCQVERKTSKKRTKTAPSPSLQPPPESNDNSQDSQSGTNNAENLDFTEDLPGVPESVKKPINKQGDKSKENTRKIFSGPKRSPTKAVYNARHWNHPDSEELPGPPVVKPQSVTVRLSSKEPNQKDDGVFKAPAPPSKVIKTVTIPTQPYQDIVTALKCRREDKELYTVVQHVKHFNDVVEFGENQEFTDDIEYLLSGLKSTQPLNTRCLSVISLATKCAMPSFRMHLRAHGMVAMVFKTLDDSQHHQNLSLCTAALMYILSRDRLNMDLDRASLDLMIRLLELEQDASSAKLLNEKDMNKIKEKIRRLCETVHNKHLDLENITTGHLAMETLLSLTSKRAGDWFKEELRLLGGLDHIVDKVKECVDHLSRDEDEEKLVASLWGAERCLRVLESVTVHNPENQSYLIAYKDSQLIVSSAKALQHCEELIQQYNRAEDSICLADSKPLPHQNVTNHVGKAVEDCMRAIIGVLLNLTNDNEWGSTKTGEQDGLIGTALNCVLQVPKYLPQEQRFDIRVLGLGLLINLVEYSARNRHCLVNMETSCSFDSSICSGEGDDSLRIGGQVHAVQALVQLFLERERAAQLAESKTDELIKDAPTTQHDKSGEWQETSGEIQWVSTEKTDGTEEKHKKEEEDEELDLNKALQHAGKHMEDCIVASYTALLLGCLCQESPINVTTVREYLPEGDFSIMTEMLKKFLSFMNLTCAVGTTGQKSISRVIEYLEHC
B2: Cohesin subunit SA-2 (Homo sapiens), Q8N3U4 (parent)
chain: B1 chain
partner: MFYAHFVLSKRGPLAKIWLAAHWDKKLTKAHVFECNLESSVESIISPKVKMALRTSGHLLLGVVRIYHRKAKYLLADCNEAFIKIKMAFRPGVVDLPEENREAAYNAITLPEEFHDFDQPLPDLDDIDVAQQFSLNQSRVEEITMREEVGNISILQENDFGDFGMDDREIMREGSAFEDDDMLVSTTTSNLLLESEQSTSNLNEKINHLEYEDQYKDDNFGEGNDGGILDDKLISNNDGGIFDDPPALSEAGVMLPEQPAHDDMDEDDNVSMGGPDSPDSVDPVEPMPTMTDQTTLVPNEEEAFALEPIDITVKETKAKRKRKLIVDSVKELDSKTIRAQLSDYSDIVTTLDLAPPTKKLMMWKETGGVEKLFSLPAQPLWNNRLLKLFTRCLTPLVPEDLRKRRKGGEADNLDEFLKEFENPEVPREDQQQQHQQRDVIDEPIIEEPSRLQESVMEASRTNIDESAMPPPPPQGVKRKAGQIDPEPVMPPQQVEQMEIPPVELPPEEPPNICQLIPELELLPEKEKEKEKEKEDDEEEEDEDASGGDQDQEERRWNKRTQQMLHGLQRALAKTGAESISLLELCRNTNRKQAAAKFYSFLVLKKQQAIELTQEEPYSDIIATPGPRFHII
B3: Cohesin subunit SA-2 (Homo sapiens), Q8N3U4 (parent)
chain: B1 chain

Variants of: B1
Conditions: with wapl_human WAPL

Variant	effect of a mutation on the interaction
S327N	with no effect
K330E	decreasing interaction

Variants of: B2
Conditions: with rad21_human RAD21, O60216

Variant	effect of a mutation on the interaction
S327N	with no effect

Variants of: B3
Conditions: with sgo1_human SGO1, Q5FBB7
Chain of sgo1_human SGO1, Q5FBB7 (Q5FBB7 whole entry): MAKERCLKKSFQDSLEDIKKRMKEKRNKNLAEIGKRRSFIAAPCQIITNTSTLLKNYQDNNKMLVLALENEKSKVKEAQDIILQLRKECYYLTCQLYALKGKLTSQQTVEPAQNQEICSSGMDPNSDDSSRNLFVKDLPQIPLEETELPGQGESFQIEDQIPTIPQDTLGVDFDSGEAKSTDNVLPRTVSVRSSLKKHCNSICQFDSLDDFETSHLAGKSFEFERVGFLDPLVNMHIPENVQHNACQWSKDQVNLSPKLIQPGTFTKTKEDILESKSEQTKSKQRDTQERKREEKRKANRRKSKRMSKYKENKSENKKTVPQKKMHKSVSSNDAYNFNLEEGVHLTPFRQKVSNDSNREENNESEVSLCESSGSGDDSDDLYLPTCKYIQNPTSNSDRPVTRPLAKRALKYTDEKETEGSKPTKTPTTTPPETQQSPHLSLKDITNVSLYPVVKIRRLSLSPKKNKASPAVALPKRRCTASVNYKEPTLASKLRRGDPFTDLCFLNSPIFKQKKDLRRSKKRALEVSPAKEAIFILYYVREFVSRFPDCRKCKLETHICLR

Variant	effect of a mutation on the interaction
K330E	disrupting interaction
S327N	decreasing interaction
